The supplement of paper PMC9170038

Test system: MS2 coat protein
Assay: apparent KD of MS2 coat protein; designed switch direction (-1 OFF switch, 1 ON switch): -1; higher = weaker reporter binding
Method in brief: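 The apparent KD reported per design is the median over clusters of curve fits to normalised cluster fluorescence. The RNA switches were transcribed on Illumina chips by stalled E. coli RNA polymerase. SNAP-549-labelled MS2 coat protein was titrated from 0.7 or 1.5 nM, doubling up to 3 µM, in Tris-HCl pH 7.5 buffer containing KCl, MgCl2, BSA, DTT, tRNA and Tween-20, with no input, 200 uM small-molecule ligand, or an oligonucleotide input.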

[1] = input ligand: microRNA oligo, concentration not stated
[2] = Eterna round: R95, input ligand: microRNA oligo, concentration not stated

Row | Sequence | apparent KD of MS2 coat protein [1] [nM] | apparent KD of MS2 coat protein (input ligand: FMN 200 uM) [nM] | apparent KD of MS2 coat protein (input ligand: none) [nM] | apparent KD of MS2 coat protein [2] [nM]
1 | AGCUGUGGCCGAGGAUAUCUAGCUUCAAUAACCGAAAUAUAAUCGGACAUGAGGAUCACCCAUGUAGAGAAGGCGGUCUCAGCA [Eli eng2 - 084] (Eterna round: R96, puzzle: Exclusion NG 2) | 22.3 | – | – | –
2 | AGCUGUGGCCGAGGAUAUCUAUCUUCAAUAACCGAAAUAUAAUCGGACAUGAGGAUCACCCAUGUAGAGAAGGCGGUCUCAGCA [Eli eng2 - 091] (Eterna round: R96, puzzle: Exclusion NG 2) | 27.3 | – | – | –
3 | AGCUGUGGCCGAGGAUAUCUCAUAGUCCCAACCGAAAUAUAAUCGGACAUGAGGAUCACCCAUGUAGAGAAGGCGGUCUCAGCA [Eli eng2 - 071] (Eterna round: R96, puzzle: Exclusion NG 2) | 40.7 | 115 | 151 | –
4 | AGCUGUGGCCGAGGAUAUCUGAACUUUCAAACCGAAAUAUAAUCGGACAUGAGGAUCACCCAUGUAGAGAAGGCGGUCUCAGCA [Eli eng2 - 061] (Eterna round: R96, puzzle: Exclusion NG 2) | 10.5 | – | – | –
5 | AGCUUUUUGCUCGUCUUAUACAUGAGGAUCACCCAUGUAUUGGACCACAUCGAUAGAUGUGGACCAAGAAGCGUGGU [Omdei Mir OFFv1 C4] (Eterna round: R97, puzzle: Sensor, turn-off variant 1) | – | 38.6 | 39.7 | –
6 | AGCUUUUUGUUCGUCUUAUACAUGAGGAUCACCCAUGUAUUGGACCGCAUCGAUAGAUGUAGACCGAGAAGCAUGGG [Omdei Mir OFFv1 C6] (Eterna round: R97, puzzle: Sensor, turn-off variant 1) | – | 63 | 55.3 | –
7 | AGCUUUUUGUUUUUGGGUGACAUGAGGAUCACCCAUGUCUUAUGGGCCCAAUAAUAAUAAAAUAAAAGGGACCCACG [-20.8, -41.27, a 31%] (Eterna round: R97, puzzle: Sensor, turn-off variant 1) | – | 457 | 208 | –
8 | AGGACAUGAGGAUCACCCAUGUAGUGAGGUGUAUCCGAAGACGAGGAUAUACAGAGGAAAUAUCUGUAGAAGGUGUAAUAAAAU [Istediso] (Eterna round: R96, puzzle: Exclusion NG 3) | 247 | 725 | 299 | –
9 | AGGAGGAGUUCAGGAUAUUCGACAUGAGGAUCACCCAUGUGGGUAAUAUAUAGUAAAGAGAUAGAGAAGAAGGGAAGGGAGGAG [Exclusion NG2] (Eterna round: R96, puzzle: Exclusion NG 2) | 23.5 | 42.5 | 36 | –
10 | AGGCGCUAGUAGGAUAUCUGGAACGGAUUAUAAAGAGAAGGGCUGACAUGAGGAUCACCCAUGUGACCAAUGCG [Eternabot (L1) Solution 50] (Eterna round: R97, puzzle: Exclusion 6) | – | 41.2 | 50.6 | –
11 | AGGGAUAAAGGAUAUACAUGAGGAUCACCCAUGUUGAGGAAAGUGAGAGGUGGCGAUAGUAGAAGGUUAGGUGG [JR_Exclu3_Sub083] (puzzle: Exclusion 3) | – | – | – | 79.9
12 | AGGGCACAUGAGGAUCACCCAUGUGAGGAUAUCCCGGUACUAUCGAUGUAGUAAUCGUGGAGAAGGCACACGAC [EX1 C.21] (Eterna round: R97, puzzle: Exclusion 1) | – | 90.3 | 62.6 | –
13 | AGGUAACAUGAGGAUCACCCAUGUCAGGAUAUCAGUAAGAUGAGAAUAGAGUAGAGUAUGAGAAGGGACUAUAU [Excluse me! 21 - Jieux - Exclusion 1] (puzzle: Exclusion 1) | – | – | – | 37.4
14 | AGGUAACAUGAGGAUCACCCAUGUCAGGAUAUCAGUAAGAUUAGAAUAGAGUAGAGGAUGAGAAGGGACUAUAU [Excluse me! 19- Jieux - Exclusion 1] (puzzle: Exclusion 1) | – | – | – | 42.7
15 | AGGUAACAUGAGGAUCACCCAUGUCAGGAUAUCAUGAAGAGGAGAUUAGAGGAGAGGUUGAGAAGGGACUAUAU [Excluse me! 14 - Jieux - Exclusion 1] (puzzle: Exclusion 1) | – | – | – | 57.1
